Data on three molecules can be found in article PMC6829326 (International Journal of Molecular Sciences, 2019).

First the molecules themselves.
B1: C-8-2 scFv displayed on phage (scFv, V domains shown)
VH: EVQLVQSGAEVKKPGSSVKVSCKASGGTESSEAISWVRQAPGQGLEWMGGIIPFFGTANYAQKFQGRVTITADESTSTAYMELSSLRSEDTAVYYCARDGRKDYYGSGSYLHYYGMDVWGQGTTVTVSS
VL: ELVMTQSPLSLPVTPGEPASISCRSSQSLLHSNGYNYLDWYLQRPGQSPQLLIYLGSNRASGVPDRFSGSGSGTDFTLKIGRVEAEDVGIYYCMQALQTPLTFGGGTKVEIK
notes: also called C-8-2 clone
B2: C-8-2-4B scFv displayed on phage (scFv, V domains shown)
VH: EVQLVQSGAEVKKPGSSVKVSCKASDGKEKREAISWVRQAPGQGLEWMGGIIPFFDKANYAQKFQGRVTITADESTSTAYMELSSLRSEDTAVYYCARDGRKDYYGSGSYLHYYGMDVWGQGTTVTVSS
VL: ELVMTQSPLSLPVTPGEPASISCRSSQSLLHSNGYNYLDWYLQRPGQSPQLLIYLGSNRASGVPDRFSGSGSGTDFTLKIGRVEAEDVGIYYCMQALQTPLTFGGGTKVEIK
notes: also called clone C-8-2-4B
B3: C-8-2-4B-10D scFv displayed on phage (scFv, V domains shown)
VH: EVQLVQSGAEVKKPGSSVKVSCKASDGKEKREAISWVRQAPGQGLEWMGGIIPFFDKANYAQKFQGRVTITADESTSTAYMELSSLRSEDTAVYYCARDGRKDYYGSGSYLHYYGMDVWGQGTTVTVSS
VL: ELVMTQSPLSLPVTPGEPASISCRSSQSLVHSNGYNYLDWYLQRPGQSPQLLIYLGSNRASGVPDRFSGSGSGTDFTLKIGRVEAEDVGIYYCMQAVQTPLTFGGGTKVEIK

The test concerns the target T1, recombinant MERS-CoV S RBD protein (MERS-CoV, strain ; EMC/2012 …, UniProt K0BRG7).
T1 construct: source: bought: Sino Biological Inc
The test can be described thus: ELISA. The conditions noted are these: one partner purified.
With B1, the binding result is “binds”.
The value for B2 was “binds”.
With B3, the binding result is on record as “binds”.
